For this experiment, the target named is recombinant WU2 (r)PspA possessing only αHD and PRD (Streptococcus pneumoniae serotype 3 strain WU2). As to the kind of experiment: SPR.

These results are taken from paper PMC10557681.

Consider “recombinant lactoferrin (LF) (from UniProt P02788 20-710) (natural protein)”, for which the Kd (commonly the free concentration of one partner at which half of the binding sites on the other are occupied at equilibrium, for simple one-to-one binding) was 3.89 nM.
